Laboratory results from the Human Domainome abundance scans (Beltran et al. 2025).

B1: Activity-dependent neuroprotector homeobox protein, residues 770 to 810; numbered along this chain, Q9H2P0 (parent)
chain: FLTKYFNKQPYPTRREIEKLAASLWLWKSDIASHFSNKRKK

Variants of: B1
Experiment: abundance fitness (aPCA) (normalised: wild type 0, dead -1); higher = more abundant; growth selection in yeast, the domain comes from the species named
Settings: Homo sapiens

Abundance fitness: each site, then its substitutions
L2: G -0.812 | K -0.622 | P -0.532 | R -0.789 | V -0.369 | F 0.098 | Y -0.248 | A -0.753 | Q -0.595 | S -0.88 | W 0.044 | T -0.661 | E -1.06
K38: A -0.167 | F -0.269 | V -0.119 | N -0.298 | E -0.327 | G -0.09 | L -0.197 | Q -0.216 | R -0.115 | H -0.112
N37: V -0.091 | R -0.081 | K 0.131 | F -0.044 | C -0.002 | P -0.107 | Q -0.141 | E -0.142 | T -0.077
S23: V -0.101 | Q -0.404 | D -0.002 | R 0.276 | E -0.116 | L -0.211 | I -0.432 | H -0.103 | K 0.262 | W -0.091 | N -0.074 | T -0.075
E16: Y -0.096 | I 0.009 | S -0.036 | V -0.168 | R 0.054 | D 0.016 | L -0.194 | C 0.082 | A -0.14
I17: F -0.205 | H -0.237 | W 0.18 | D -0.604 | R -0.294 | L -0.019 | S -0.455 | Y -0.1 | V -0.025 | G -0.158 | A -0.127
Q9: D -0.169 | E -0.075 | T -0.053 | R 0.039 | F -0.233 | N -0.007
K40: N -0.425 | L -0.352 | P -0.28 | R -0.156 | M -0.069 | W -0.137 | S -0.259 | V -0.461
F1: L -1.24 | G -0.574 | T -0.158 | P -0.375 | C -0.854
F35: C -0.347 | E -0.068 | I -0.208 | P -0.231 | T -0.229 | G -0.112 | L -0.023
H34: D -0.388 | I 0.068 | R -0.085 | P -0.01 | K 0.022 | Y -0.151 | Q -0.032 | E -0.275 | T -0.128 | G -0.043
A21: M 0.083 | G 0.202 | C -0.099 | E -0.39 | S -0.012 | V -0.128 | I -0.169 | L -0.082 | P -0.3
R14: L -0.14 | Y -0.13 | M -0.028 | K -0.048 | Q -0.265 | F -0.392 | D -0.826 | V -0.388
R15: Q -0.162 | S -0.018 | M -0.204 | W -0.326 | K 0.093 | D -0.278 | N -0.173 | E -0.02 | T -0.005
L24: T -0.212 | E -0.82 | S -0.483 | I 0.051 | V 0.123 | G -0.228 | W -0.121 | F -0.197
K4: T -0.877 | A -0.735 | V -0.815 | P -0.904 | L -1 | Q -0.646
Y11: N 0.124 | P -0.124 | S 0.275 | Q 0.181 | L -0.006 | R -0.035 | E 0.02 | A 0.137 | H 0.076 | T 0.135 | M 0.058 | D -0.086
T3: Q -0.164 | H -0.325 | F -0.613 | W -0.786 | N 0.167 | K 0.262 | V -0.544 | E -0.059
S29: E -0.294 | C -0.206 | P 0.229 | M -0.124 | V -0.302
K8: Q -0.858 | W -0.942 | N -0.362 | R -0.22 | L -1.02 | V -1.15 | D -0.325 | Y -0.554 | P -1.11 | E -0.634 | S -0.995
S33: V -0.276 | T -0.076 | Y -0.381 | H 0.018 | I -0.149 | M -0.061 | R 0.032 | P -0.01
D30: G -0.025 | M -0.054 | L -0.376 | F -0.257 | T -0.182 | E -0.124 | A -0.247 | V -0.317 | R -0.026
S36: P -0.047 | M -0.037 | D -0.159 | E -0.395 | Q -0.085 | H 0.01 | W -0.177 | A -0.049 | L -0.316
I31: S -0.154 | T -0.061 | R -0.205 | L -0.043 | Y -0.189 | M 0.056 | C -0.075 | V 0.16 | P -0.098 | A 0.109
P12: V -0.584 | D 0.092 | G 0.099 | Q -0.036 | W -0.235 | L -0.22 | A 0.048 | T -0.142
R39: Q -0.195 | M 0.134 | G -0.195 | W 0.009
L20: I -0.005 | W 0.257 | Q -0.462 | H -0.269 | F 0.042 | S -0.243 | G -0.181 | D -0.322 | C 0.124 | N -0.152 | E -1.02
K19: E -0.241 | Y -0.764 | D -0.099 | N -0.144 | C -0.502 | P -0.864 | S -0.413 | W -0.79 | I -0.686 | Q -0.276
T13: M 0.28 | I 0.101 | D -0.26 | L 0.132 | V 0.088 | R -0.048 | Y 0.083 | A 0.016
K28: H -0.421 | D -0.514 | T 0.18 | P 0.257 | G 0.048 | A 0.333 | Y -0.443 | M 0.438
A22: I -0.368 | L -0.396 | N -0.015 | Y -0.303 | W -0.193 | M -0.084 | V -0.344 | K 0.075
W25: S 0.134 | D -0.159 | K 0.361 | E 0.13 | F -0.168 | Q 0.068 | P -0.176 | L 0.097 | V 0.133 | C -0.14 | R 0.254 | H 0.071
K41: R -0.092 | H -0.214 | N -0.15 | T -0.128
F6: Y -0.295 | K -0.098 | G -0.442 | T -0.328 | L -0.157 | S -0.76 | V -0.369 | I -0.237 | M -0.209 | E -0.821 | D -0.837 | A -0.235 | C -0.223 | P -0.942
L26: H 0.253 | E 0.127 | Y -0.151 | G 0.101 | V 0.037 | I -0.134
P10: T 0.011 | W 0.059 | L -0.15 | I -0.114 | K -0.139 | V 0.062 | Y -0.155
W27: C -0.188 | G 0.037 | A -0.084 | R 0.025 | H -0.137 | D -0.22 | Y -0.227
E18: C -0.232 | M 0.075 | Q 0.061 | H -0.257
N7: S -0.107 | V -0.841 | P 0.017 | F -1.24 | A -0.145 | E -0.058 | C -0.455
Y5: L -0.322
A32: T -0.086 | C 0.074 | Q -0.169
